Experiments:
[1] = system: LIF expression in normal human neuroprogenitors; assay: LIF mRNA in neurospheres of normal human neuroprogenitors; format: cell-based; details: 100 pM, 3 hours, compared with GBM neurospheres
Method: FIG. 8. Effect of TGFβ on the capacity of self-renewal of normal human neuroprogenitors. (A) Immunocytochemistry of the indicated markers was performed in human neuroprogenitor neurospheres. (B) Neurospheres of the sample of GBM1 and of human neuroprogenitors were incubated with the indicated members of the 100 pM TGFβ family for 3 hours and the mRNA levels of LIF were determined. (C, D) Neurosphere cells of normal human neuroprogenitors were incubated in the same conditions that have been described above in FIG. 1D in the presence of 100 pM TGFβ1 or 20 ng/ml LIF for 7 days and the number of newly formed neurospheres (C) and the number total of cells (D) were determined.
The U373MG and A172 cells were a generous gift from J. Rich and D. Bigner and were cultured in DMEM with 10% fetal bovine serum (FBS). The primary culture of tumor cells (PCTC) and the GBM neurospheres were generated as described (Bruna et al., (2007) Cancer Cell 11, 147-160; Gunther et al., (2008) Oncogene. May 1; 27(20):2897-909). Briefly, the samples of tumors were processed in the 30 minutes after the surgical resection. The ground pieces of the samples of human gliomas were digested with 200 U/ml collagenase I (Sigma) and 500 U/ml of DNase I (Sigma) in PBS for 2 hours at 37° C. and with constant vigorous stirring. The suspension of individual cells was filtered through a 70 μm cell filter (BD Falcon) and washed with PBS. […]
qRT-PCR was performed using Taqman probes from Applied Biosystems, according to the manufacturer's recommendations. The reactions were carried out in a ABI 7000 sequence detector (Perkin Elmer) and the results were expressed as the fold change calculated by means of the DDCt method relative to the control sample or the first quantified sample. […]
It was decided to assess whether this effect was specific to tumor cells or was also present in normal neuroprogenitor cells. […] First, it was determined if TGFβ induced LIF in normal human neuroprogenitors. […]

[2] = system: LIF expression in GBM neurospheres; assay: LIF mRNA by qRT-PCR in GBM neurospheres; format: cell-based, human; details: 100 pM, 3 hours, medium without serum
Method: FIG. 3. TGFβ induces the expression of LIF in PCTC and GBM neurospheres. (A) PCTC cells of the 11 samples of the indicated GEM (GBM1-11) were treated with 100 pM TGFβ1 for 3 hours in medium without serum or left untreated, and the expression levels of LIF were determined by means of qRT-PCR. The g-actin was determined as an internal normalization control. (B) GBM neurosphere cells were treated as in A and the expression levels of LIF were determined by means of qRT-PCR as in A. (C) GBM neurospheres were incubated with 100 pM TGFβ1 and/or 2 μM TβRI inhibitor for 3 hours in medium without serum and the mRNA levels of LIF were determined by means of qRT-PCR as in A. (D) GBM1 neurospheres were incubated with 100 pM TGFβ1, TGFβ2 and TGFβ3 for 3 hours in medium without serum and the mRNA levels of LIF were determined by means of qRT-PCR as in A. (E) The levels of LIF protein secreted were determined by means of ELISA in GBM1 neurospheres after 48 hours of treatment with 100 pM TGFβ1.
The U373MG and A172 cells were a generous gift from J. Rich and D. Bigner and were cultured in DMEM with 10% fetal bovine serum (FBS). The primary culture of tumor cells (PCTC) and the GBM neurospheres were generated as described (Bruna et al., (2007) Cancer Cell 11, 147-160; Gunther et al., (2008) Oncogene. May 1; 27(20):2897-909). Briefly, the samples of tumors were processed in the 30 minutes after the surgical resection. The ground pieces of the samples of human gliomas were digested with 200 U/ml collagenase I (Sigma) and 500 U/ml of DNase I (Sigma) in PBS for 2 hours at 37° C. and with constant vigorous stirring. The suspension of individual cells was filtered through a 70 μm cell filter (BD Falcon) and washed with PBS. Finally, the cells were resuspended and subsequently cultured in DMEM with 10% FBS, for the culture of PCTCs, or in neurosphere medium in the case of the GBM neurospheres. The neurospheres of normal human neuroprogenitors were generated from human embryonic cerebral cortex tissue (12-16 weeks after the conception) collected after voluntary abortions. The samples were processed and cultured as described (Poltavtseva et al. (2002) Brain Res Dev Brain Res 134, 149-154). The neurosphere medium consists of neurobasal medium (Gibco) supplemented with B27 (Gibco), L-glutamine (Gibco), penicillin/streptomycin, and growth factors (20 ng/mL EGF and 20 ng/mL FGF-2 (Peprotech)).
(§1) qRT-PCR was performed using Taqman probes from Applied Biosystems, according to the manufacturer's recommendations. The reactions were carried out in a ABI 7000 sequence detector (Perkin Elmer) and the results were expressed as the fold change calculated by means of the DDCt method relative to the control sample or the first quantified sample. The ribosomal unit of 18S or β-actin were used as internal normalization controls.
It was decided to investigate the molecular mechanisms responsible for the effect of TGFβ on GICs. Gene responses to TGFβ in GBM cells which could be involved in the regulation of the self-renewal of GICs were investigated. In a previous work (Bruna et al., 2007), transcriptome analyses were conducted in the U373MG glioma cell line treated with TGFβ and/or a TβRI inhibitor. LIF was among the 63 gene responses to TGFβ in U373MG which were dependent on the activity of TβRI. […] A panel of PCTCs derived from 11 different human GBMs was treated with TGFβ for 3 hours and the levels of LIF mRNA were determined.

GBM neurospheres = assay: Differentiation of GBM neurospheres (neuroprogenitor markers, adhesion); format: cell-based, human; details: GBM1 neurospheres, 7 days without EGF or FGF, 100 pM TGFβ1 or 20 ng/ml LIF
Method: FIG. 7. TGFβ and LIF prevent the differentiation of GBM neurospheres. (A) Immunocytochemistry of the indicated proteins was performed in neurospheres derived from GBM1 treated with 100 pM TGFβ1 or 20 ng/ml LIF for 7 days in the absence of growth factors and the last 3 days on slides coated with poly-L-lysine. (B) The mRNA levels of Musashi-1 (Msi-1), Sox2 and Nestin were determined in GBM1 neurospheres after 7 days of the indicated treatments without growth factors. The RNA levels of 18S were used as an internal normalization control.
The immunocytochemistry of neurospheres and differentiated neurospheres was performed as described (Geshwind et al., 2001) using the following antibodies: anti-nestin (Chemicon), anti-GFAP (Dako), anti-TuJ1 (Chemicon), anti-04 (Chemicon), anti-Sox2 (Chemicon), anti-α-tubulin (Sigma). The nuclei were counterstained with 4′,6-diamino-2-phenylindole (DAPI).
as §1
The neurospheres derived from GBMs grown in the absence of growth factors and seeded in poly-L-lysine-coated plates tend to differentiate losing the expression of the neuroprogenitor markers Musashi-1, Sox2 and Nestin, and being adhered to the culture plate. It was decided to evaluate the effect of TGFβ and LIF on this differentiation process. The neurospheres were cultured in the presence of TGFβ or LIF without EGF or FGF for 7 days and subsequently processed for immunohistochemical staining and qRT-PCR assays for determining the levels of the neuroprogenitor markers Musashi-1, Sox2 and Nestin.

B1: TGFβ3: TGFβ3 (R&D Systems), member of the TGFβ family (protein, UniProt P10600 301-412, looked up)
Transforming growth factor …: ALDTNYCFRNLEENCCVRPLYIDFRQDLGWKWVHEPKGYYANFCSGPCPYLRSADTTHSTVLGLYNTLNPEASASPCCVPQDLEPLTILYYVGRTPKVEQLSNMVVKSCKCS
For B1, the “induction of LIF mRNA in normal human neuroprogenitor neurospheres” value [1] was “did not induce LIF”, the “LIF transcript in neurospheres derived from patients” value [2] was “capable of inducing LIF” and the “expression of Musashi-1, Sox2 and Nestin (immunocytochemistry, qRT-PCR)” value (GBM neurospheres) was “maintained the expression”.

From patent US11999782B2, “Therapeutic agents for the treatment of diseases associated with undesired cell proliferation” (Fundació Privada Institutció Catalana de Recerca I Estudis …, priority 2009, dated 2024)
